The data set is described as follows: soluble on expression in E. coli; label from the status in PepcDB or PDB records.
As for “MPGFSALSGGDKRQPEVNIGVVGHVDHGKTTLVQALTGVWTMRHSEEIRRGMTIKLGYADGEVWECEGCGFPERFSPEPVCECDPQASASLRRRVSYVDAPGHEILMATMLSGAALMDGALLVVAANEPCPQPQTKEHLVALEIIGIKNIVIVQNKVDVVSRERAKESYQEILNFIKGTIAEGSPIIPVSALKRANIDAVLAAIEKFIPTPPRDLDKPPVMYISRSFDVNRPGTPPERLVGGVVGGSIIQGVFRVGDEIEISPGVAVRKPGGRVEYVRLHTTITSLRFGSIEVEEARPGGLVAIGTQLDPSVTKADNLVGNVVGKPGELPEPLTTLRIEHHLLEKVVGMKEEARVEPIRRGEMLMLSVGTAITLGVVTRAGKDEIEVQLRRPVVTWPKARVALSRRIMGRWRLIGWGLIK”, the “soluble on expression in E. coli” value is reported as “soluble”.
Next, “MPGHELEDVINQRLNLYDVLELPTPLDVHTIYDDLPQIKRKYRTLALKYHPDKHPDNPSIIHKFHLLSTATNILTNADVRPHYDRWLIEFLRKTNDIERNKLIQKLEESESSTIPTTTPHPDLLQIQRHGELLRKLKHFNLPYGDWKHLNTQDQENASQHPYYDCSTLRIVLDNFLQSNNKSNCLSHLRNQVFITLSANEIYDIYFSERNNYSKDDSIIIYTVFDTPITAQHVFRNWSSGNLIPTVKDISPLIPLHYYSDFNLETELNDDIARLVSNEPILLD”: “not soluble”; “MPHAPQEQIAPLLTTEGWELLASLGPYREADSFSVNAHLRKAGHSPELVAAVLTQSRLRTRAEAKFGEFARQMLFTQAGLEQATRLNVAARHAERFAKAGISHVADLGCGLGADSMAMASMDISVTAVEMDETTAACATINLMPFPHATVVHADATSVELDGMDGVWLDPARRTTSTSGTKRIWDPEAFSPPLSFVERLAATGRAIGVKMGPGIPHDSVPPGCEAQWVSVGGDVTEVTLWFNAVARPGVRRAALVIGNQGAAEITSGADFDGGPVAAVGPVEGFLYEPDGAVIRAGLVADVAGRLGGHLVDEHIAYICAPELHDTPFARAFKVLEVMPYNVKALKAWVKNQGITVLDIKKRGTAVTPEELRKQLLPAKPVKGKDAKTATLVLTRIGEERVAVVVEPVTA”: “soluble”.
In the case of “MPHFNFDYQEFLMMVQHLKRRPLSRYLKDFKHSQTHCAHCRKLLDRITLVRDGKIVNKIEISRLDTLLDEKGWQTEQQSWAALCRFCGDLHCKTQSDFFDIIGFKKFLFEQTEMSPGTVREYVVRLRRLGNHLHEQNISLDQLQDGFLDEILAPWLPTTSTNNYRIALRKYQHYQRQTCTGLVQKSSSLPASDIY” it was “not soluble”; in that of “MPHVLVLNASYEPLGVVPLRRALVLVLENKAVCLEESGAFMHSATVTVPAPSVVRLKRFVRVPYRGPVPLTRRALFARDGGRCMYCGGVATSVDHVIPRSRGGQHAWDNVVASCRRCNHVKADRHLFEIGWRLRHKPAPPTGLAWRIIGTGHRDPRWLPYLQPYGADDAMARIDGISAAAALEHHHHHH”, “not soluble”; in that of “MPILNLNNFLAALGNTPDYGRLFARAEHLAQVQKHLLNAVPFQLRNQCTVGQYTADGLLVIYAGNGTTATRLRHLAPSIRQKMNNAGVKVENIRFSIQPQLHSLESGNVREITRSLSQTAIEHLDKLSDSLPAGSPLQSSLAALLANSRRK”, “not soluble”.
As for “MPISEDLKQAIRQRARYICEYCHSPERLSANRFTIDHVIPKSLGGSDAFNNLALACRRCNERRYNFVASIDPQTKTIVAIFNPRQQNWAEHFIWTNRGIIIQGTTTTGRATCIRLDLNDTRYPEEDSIQETRRFWLKTGLHPPIDDPCKNLEHHHHHH”, the “soluble on expression in E. coli” value is on record as “soluble”.
Take “MPIVNVKWQKEKYVVEVDTSAPPMVFKAQLFALTQVVPERQKVVIMGRTLGDDDWEGITIKENMTIMMMGSVGEIPKPPTVLEKKQANRDKQAEEISALYPCGLANLGNTCYFNSCVQMLKEVNELVLKPAEEMRIREHNDRLCHNLATLFNSLRDKDRALRSKGEPIKPFAAILTLSDSFPQFEKFKQQDANECLVSIMSNVTRIYGLSGWNIESLFRIQTETTMKCLESDEVSEKKVERNNQLTCYVNQDVRFLQTGIKAGFEEEMTRNSEELNRDAKWQKNTQISRLPKYLTVNINRFFYKESTKTNAKILKSVQFPMQLDTYDLCSQELKDKLVARRADIKLEEDAKLERELRKKVLDKEQGDKIFDDGVALPTAFEDDAGSNNSGFYDLKGIITHKGRSSQDGHYVAWMRSSEDGKWRLFDDEHVTVVDEEAILKTSGGGDWHSAYVLLYEARVIKQFPELPPAPVPTEVAADTAEPMEVSEKQ”: the “soluble on expression in E. coli” value is recorded as “not soluble”.
Turning to “MPKAEGRIFDFKGHDAIRTDFLEAIDFDGKDEYIKIETDEFSAVCPFSGLPDIGRVIIEYYPDGGKIVELKSLKYYFVSFRNVGIYQEEATKRIYEDLKNLLKTDRIRVTVIYNIRGGIKTTTQMGSLEGKKSGEVE”, the “soluble on expression in E. coli” value was “not soluble”.
In the case of “MPKESLLRELSALREQLEQQPPLNEEQRAELELLIRDIELKLANEDALNEGSLVDGVNLAVERFEVSHPTLAGTLRSIVQSLANMGI” it was “not soluble”; in that of “MPKNRGVLDAITRSVIDGSDQESSSSFNSDKEYAAVTKGLSSSRVQKKSSLRQMKSKVKELQSLVNHYRENEAALVSSAKLLSGEIIGYEIKMASLHGKMKSILDENNALKETHKSSAEKRIELVRLPSSKEERNYDEYTLLVNLKKEICAKLQDYKNVQNTVNTKLDEIHTFHEKYYEGLELSLDSKVFDAESSKELAKVRRELNNVRKNSEIKVNNLKMQLLQATKSLEHLKKQAKAKDDYLKCIPELVDKANLTMLSYKKSIANQRETIEALQAELSQQSETKGQIETETQNQVQIPTNVTLVDPFEENNPEDLFAIQEQELQDLRLHKKMADERSRTTHLHLERKNNTIKLLQSYVQSLIQRLPPAQRKHHLGIFQKLGSEKSCPLAPAVASTYAPLLLLSQHSNHQEIDNTPQRLLLAAPDGQSYSEKSTTLNLDYSSRKSYLSRLQPPHIANLKSLTLKTLPRVPTDSPQLPSKDKSQETAKKDDRPKLVANEPVTLDTSTPPVAQSLADSKHCSGLHK”, “not soluble”; in that of “MPKPYIAINMADLKNEPKTFEMFSAVGPKVCMVTARHPGFVGFQNHVQIGVLPFGERFGGAKMDMTKESSTVRVLQYTMWKDWKDHEEMHRQNWSYLFRLCYSCASQMVWGPWEPIYEIKYADMPINTEMTDFTAVVGKKFAEGKPLEIPVISQPYGKRVVAFGEHTVIPGKEEQFEDAIIKTLEMFKRAPGFLGAMLLKEIGVSGIGSFQFGSKGFHQLLESPGSLEPDPNNVMYQAPEAKPTPPQYIVHVEWANLDALQFGMGRVLLSPEYREVHDEALDTLIYGPYIRIINPVMEGTFWREYLNE”, “soluble”.
Next, “MPLCTLRQMLGEARKHKYGVGAFNVNNMEQIQGIMKAVVQLKSPVILQCSRGALKYSDMIYLKKLCEAALEKHPDIPICIHLDHGDTLESVKMAIDLGFSSVMIDASHHPFDENVRITKEVVAYAHARSVSVEAELGTLGGIEEDVQNTVQLTEPQDAKKFVELTGVDALAVAIGTSHGAYKFKSESDIRLAIDRVKTISDLTGIPLVMHGSSSVPKDVKDMINKYGGKMPDAVGVPIESIVHAIGEGVCKINVDSDSRMAMTGAIRKVFVEHPEKFDPRDYLGPGRDAITEMLIPKIKAFGSAGHAGDYKVVSLEEAKAWYK”: “soluble”; “MPLDVALKRKYYEEVRPELIRRFGYQNVWEVPRLEKVVINQGLGEAKEDARILEKAAQELALITGQKPAVTRAKKSISNFKLRKGMPIGLRVTLRRDRMWIFLEKLLNVALPRIRDFRGLNPNSFDGRGNYNLGLREQLIFPEITYDMVDALRGMDIAVVTTAETDEEARALLELLGFPFRK”: “soluble”; “MPLSPTSVPLTVKEFEKALCGICGGCSSACGYIAYLKQDELVDLYGHPHDPNGIGSFCTKGITYIQEIPKNPLRITKPLLREGNNFREVEFQETKKLIKENLKGKVAFFLDRFAGIEEYLIARSLTEEVFSDSLYLPFKQTSVRAQDWVDKKALFIFEAEPTFSEVMLTRWIVDAFEKDAYIFTAGSRYTTVFQKSKEKVLTTPEKTTEILQALSEGRFEGKAQKFLEFFGKESVVIVGDTLLRSPFRGKVLKTLKEISEKYGADYSIVGNITPFPVKSLKEFLERLGEFDTLVLFGNPFIYLSDEQIQKLKDKFVINFAYFPTITANHSTLIIPRTTFAEREFIVKGFGFLAHSPQVLNAPFPQPYEYFESSFDVEDFLKECGVKLEELKEKEGGVDISMKDITEVDINEEDRSESGELWFICDNTLAEELGHWNPWTHALEREQFAYVNQKTKERLNIGNLIEINGVKLKVKVNNNLADNVVFVPNSFEEFQPFDPGIRVGRLMKKPFFKLEVLNLNV”: “not soluble”.
For “MPLYKLTYFDARGYAEPARILFHLAGVPFEDNRLTHGDGSWEKIKDKTPFGQVPVLSVDGFDIPQSAAIIRYLANKFGYAGKTPEEQAWADAIVDQFKDFMGAFRQLIMAQRSGKPAEEIAKISSEVAIPARDSYFKILNGLLEKSKSGFLVGDGLTFADIVVVENLTTLEKNQFFTASEHPKLSALREKVHAVPAIKTWVATRPDTQF”, the “soluble on expression in E. coli” value is reported as “not soluble”.
Take “MPNLPQKAQQRQPQEHKSRHKATDDTEAPKQQQQQQQQQQSFDVATNANGSSLPASRVKNPEEPGGKSPLVPMRQHHSKVTRPPPPPTLFLENSLLQRQFANPISYLGGPRLQPRSNRTSIDSILSLDLEHHHHHH”: the “soluble on expression in E. coli” value was “not soluble”.
In the case of “MPNRKVVKFFFDVISPYSYFGFEGITRHRSVWKTPIQMKPFFFAGVVRHTENPGLPLRIPIKEKYMHKDLLFSAQYWGIPFRLPKDYTNMMLNTSSIVPQRILVASQLRDNVLMEDVARGLWHRFYAYGKPIFTKSQVAEVLRDLHVKDVDELVMMSDSAEVKNILRENTDEAIGNGCFGAPWMHITDGHGKVLQTVFGSDRLPQVADFLAEPFKGPMREKKPNA” it was “not soluble”; in that of “MPPKKVSPGITVILIDAGSNMSVKDTETGKSAFENAINAADWIVSRKLFSKDPELFSVMAYNLDPKEYKTEVGGQTFNGVQCQNEKFTPASFDHLKFITKELQQNTEMIDPNFFKGVLGAVAVLKDQIESYPNPSGITLIVLTNGLNENIRQENFDLLVEAVSESNADLMIIGIDENPEYPASRVAELAETLEGRTYTFQNVAKMLSTFQARQKSERKYNKMWDIAPGIHLPVIFALKSEKSTALLKFKNADSEGNEMVRLEQMHVETDEVAPKDEFKSPVLEEKPKFQKNFKPVENIKTMHGSEILNFLKSIINASGYNFGKSVIMMDPEYLKEKYNDHNFNEGQTGGVLKLIQFTKRANILDSYLLDASAKTVLPALNSPKSGATKATVSLIEAMLSLRVAAICRYTFHAKSHVQLIALLPHQDEETGVFYLRSVKLPFSDDMRTLKFPKFSFDEEDEDLNKPTVAQLSAVDDLIDCMQLQEDEISSLVEGGMSDPKLQMQCHFLKSLVLHPNDTFENHSNRTNQILDQIMAPKRRVEAEHPEIFQKLGREFNLQPIQKTKRERVTVEPEDLQTMISEWTEKKQNMTQPDEVDDGASQKKKKKPNAKKLTRKEEVQMDIMEDGGASRVCSKILEMISNTCKFQPNGAVTEFFTLLVNELNVIRSVFVENSKCDEFNELLKKLKDEEDFEPFAEVLSEEKSCNPIDSSEVSMSEVSVANAAEFWEED”, “not soluble”.
In the case of “MPQEIPPAVKYKIYPEGAEGIDTVWERPGFKKGEIEARVKDVVILRGEPVPNSYKMLVEATFELPKKDKITQLGLVNRHGLVTRVHYASPFKGAILPGDIILQVNGTTVSFDEKQLTEHVDETTGGASLQSNVKTVKRKPTTTPKTEPVRAPHSLYPDFKVVVGKILNSKSETKITVLVARLKNRMSTSKIPNGILATQDHTIDLAILYQFKYLQLGLNVQQVDRKVVVNYTIPDSVSHCSLNIGEAIIAVDDKPINTLADNRQRFREGFEANGWIRLLVEYPNTDPIKNMVRGQLANVMRTAERPQYLLCGDVRKYFVEGIEALKNGKALAPILKEEEGPGEVGKKKSDAKVTKKDPAVGFNNTTEEFFIPAEWNSKLFVWLPPLKTKVTESASSNMPVKK”, the “soluble on expression in E. coli” value is recorded as “not soluble”.

(Values after the DeepSol protein solubility set.)
